Results reported in publication PMC11696079.

Legend:
[1] = molecular target: circPETH-147aa, recombinant wild type (human); assay: SPR
[2] = molecular target: circPETH-147aa MEG/3 A, recombinant (human); assay: SPR

B1: recombinant wild-type ALDOA (WT) (enzyme)
chain: PYQYPALTPEQKKELSDIAHRIVAPGKGILAADESTGSIAKRLQSIGTENTEENRRFYRQLLLTADDRVNPCIGGVILFHETLYQKADDGRPFPQVIKSKGGVVGIKVDKGVVPLAGTNGETTTQGLDGLSERCAQYKKDGADFAKWRCVLKIGEHTPSALAIMENANVLARYASICQQNGIVPIVEPEILPDGDHDLKRCQYVTEKVLAAVYKALSDHHIYLEGTLLKPNMVTPGHACTQKFSHEEIAMATVTALRRTVPPAVTGITFLSGGQSEEEASINLNAINKCPLLKPWALTFSYGRALQASALKAWGGKKENLKAAQEEYVKRALANSLACQGKYTPSGQAGAAASESLFVSNHAY
Kd [1]: 42.4 nM | Kd [2]: 1410 nM
